T1: amphyphisin SH3 (AMPH_HUMAN), P49418
T1 chain: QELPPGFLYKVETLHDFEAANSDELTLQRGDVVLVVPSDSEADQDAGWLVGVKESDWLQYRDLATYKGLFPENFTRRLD

For the first experiment, the target named is T1, amphyphisin SH3 (AMPH_HUMAN), P49418. Put plainly: SPOT array.
For the molecule APALPPKPPKPTTV [P27986 303-317], the normalised SPOT signal, Boehringer light units (BLU); mean over the file's lines of this peptide worked out at 199.

In turn, KSQGPAKPPPPRKP [Q13444 758-772] gave a normalised SPOT signal, Boehringer light units (BLU); mean over the file's lines of this peptide of 1320.

Molecule KTKGPSRPPLDAKI [Q9HC16 39-53] yielded a normalised SPOT signal, Boehringer light units (BLU); mean over the file's lines of this peptide of 29.

In the case of KSRTLKRPTVLEPI [O60469 1933-1946], the normalised SPOT signal, Boehringer light units (BLU); mean over the file's lines of this peptide is 29.5.

KSPIPRRPTQSFVK [Q9ULL0 591-604] gave a normalised SPOT signal, Boehringer light units (BLU); mean over the file's lines of this peptide of 24.8.

KRKKFKRPPQRLFD [O00267 328-341] came in with a normalised SPOT signal, Boehringer light units (BLU); mean over the file's lines of this peptide of 57.4.

In turn, KQASLKRPPTAGAQ [Q9UBC5 553-566] registered a normalised SPOT signal, Boehringer light units (BLU); mean over the file's lines of this peptide of 5.2.

The molecule KSLKLRRPLYAHLA [Q13304 138-151] yielded a normalised SPOT signal, Boehringer light units (BLU); mean over the file's lines of this peptide of 31.7.

KSLPLRRPSYTLGM [O43166 958-971] showed a normalised SPOT signal, Boehringer light units (BLU); mean over the file's lines of this peptide of 51.5.

Molecule KTLRLWRPPRYPRK [Q9NPT6 50-63] gave a normalised SPOT signal, Boehringer light units (BLU); mean over the file's lines of this peptide of 3230.

Regarding KTHPLIRPFKTLTE [Q15413 2649-2662], the normalised SPOT signal, Boehringer light units (BLU); mean over the file's lines of this peptide came to 87.1.

KSQYFWRPKRMELS [Q9NYS8 813-826]: the normalised SPOT signal, Boehringer light units (BLU); mean over the file's lines of this peptide is 733.

The molecule KRVVPKKPPPSPQP [Q13438 518-532] yielded a normalised SPOT signal, Boehringer light units (BLU); mean over the file's lines of this peptide of 64.7.

In turn, KTKTLLRPERSRFD [O75705 229-242] came in with a normalised SPOT signal, Boehringer light units (BLU); mean over the file's lines of this peptide of 239.

As to KVFLLRRPPQAPLP [Q9P2E8 92-105], the normalised SPOT signal, Boehringer light units (BLU); mean over the file's lines of this peptide was found to be 21.

As for KSLRIARPPKQGLN [P49815 945-958], the normalised SPOT signal, Boehringer light units (BLU); mean over the file's lines of this peptide was determined as 168.

KSKKFRRPDIQYPD [P10451 170-183]: the normalised SPOT signal, Boehringer light units (BLU); mean over the file's lines of this peptide was found to be 24.7.

KTFGIRRPLDPLDP [Q9C0J1 326-339] registered a normalised SPOT signal, Boehringer light units (BLU); mean over the file's lines of this peptide of 36.6.

As to KTTPLRRPTETNPV [P46100 660-673], the normalised SPOT signal, Boehringer light units (BLU); mean over the file's lines of this peptide came out at 31.5.

Molecule KRKKPSRPAKTRKR [Q9UNZ9 85-98] showed a normalised SPOT signal, Boehringer light units (BLU); mean over the file's lines of this peptide of 109.

In turn, KQVSPRRPQATEAV [Q9Y3H2 190-203] returned a normalised SPOT signal, Boehringer light units (BLU); mean over the file's lines of this peptide of 147.

The molecule KRIKLRRPRVSKQR [Q96FU1 26-39] yielded a normalised SPOT signal, Boehringer light units (BLU); mean over the file's lines of this peptide of 12.4.

For KRGRPGRPPSTNKK [O00539 35-49], the normalised SPOT signal, Boehringer light units (BLU); mean over the file's lines of this peptide is 60.3.

APALPARPHRGLST [Q9UFL7 72-85] yielded a normalised SPOT signal, Boehringer light units (BLU); mean over the file's lines of this peptide of 5990.

KTEKPERPSRERDR [Q02241 662-675]: the normalised SPOT signal, Boehringer light units (BLU); mean over the file's lines of this peptide was 9120.

Regarding KRNSLKRPRDVDHR [Q9H8U9 166-179], the normalised SPOT signal, Boehringer light units (BLU); mean over the file's lines of this peptide stood at 27.9.

Take ANPPPKRPVRASSR [Q9HCK1 771-784]: the normalised SPOT signal, Boehringer light units (BLU); mean over the file's lines of this peptide is 14200.

KQYMLRRPALEDYV [Q9NWS7 207-220] returned a normalised SPOT signal, Boehringer light units (BLU); mean over the file's lines of this peptide of 79.4.

Another experiment addresses endophilin SH3 (SH3G2_HUMAN), Q99962. Put plainly: SPOT array.
Molecule APALPPKPPKPTTV [P27986 303-317] came in with a normalised SPOT signal, Boehringer light units (BLU); mean over the file's lines of this peptide of 2440.

The molecule KSQGPAKPPPPRKP [Q13444 758-772] had a normalised SPOT signal, Boehringer light units (BLU); mean over the file's lines of this peptide of 7680.

For KTKGPSRPPLDAKI [Q9HC16 39-53], the normalised SPOT signal, Boehringer light units (BLU); mean over the file's lines of this peptide was 2250.

With KSRTLKRPTVLEPI [O60469 1933-1946], the normalised SPOT signal, Boehringer light units (BLU); mean over the file's lines of this peptide was found to be 50.9.

In the case of KSPIPRRPTQSFVK [Q9ULL0 591-604], the normalised SPOT signal, Boehringer light units (BLU); mean over the file's lines of this peptide stood at 574.

On to KRKKFKRPPQRLFD [O00267 328-341], for which the normalised SPOT signal, Boehringer light units (BLU); mean over the file's lines of this peptide worked out at 22.5.

For KQASLKRPPTAGAQ [Q9UBC5 553-566], the normalised SPOT signal, Boehringer light units (BLU); mean over the file's lines of this peptide is 55.2.

Turning to KSLKLRRPLYAHLA [Q13304 138-151], the normalised SPOT signal, Boehringer light units (BLU); mean over the file's lines of this peptide is 38.4.

The molecule KSLPLRRPSYTLGM [O43166 958-971] returned a normalised SPOT signal, Boehringer light units (BLU); mean over the file's lines of this peptide of 322.

As to KTLRLWRPPRYPRK [Q9NPT6 50-63], the normalised SPOT signal, Boehringer light units (BLU); mean over the file's lines of this peptide worked out at 223.

As to KTHPLIRPFKTLTE [Q15413 2649-2662], the normalised SPOT signal, Boehringer light units (BLU); mean over the file's lines of this peptide was determined as 148.

For KSQYFWRPKRMELS [Q9NYS8 813-826], the normalised SPOT signal, Boehringer light units (BLU); mean over the file's lines of this peptide is 232.

With KRVVPKKPPPSPQP [Q13438 518-532], the normalised SPOT signal, Boehringer light units (BLU); mean over the file's lines of this peptide amounted to 278.

As for KTKTLLRPERSRFD [O75705 229-242], the normalised SPOT signal, Boehringer light units (BLU); mean over the file's lines of this peptide was found to be 80.8.

The molecule KVFLLRRPPQAPLP [Q9P2E8 92-105] returned a normalised SPOT signal, Boehringer light units (BLU); mean over the file's lines of this peptide of 993.

For the molecule KSLRIARPPKQGLN [P49815 945-958], the normalised SPOT signal, Boehringer light units (BLU); mean over the file's lines of this peptide came to 398.

Consider KSKKFRRPDIQYPD [P10451 170-183], for which the normalised SPOT signal, Boehringer light units (BLU); mean over the file's lines of this peptide is 40.5.

Molecule KTFGIRRPLDPLDP [Q9C0J1 326-339] returned a normalised SPOT signal, Boehringer light units (BLU); mean over the file's lines of this peptide of 41.5.

As to KTTPLRRPTETNPV [P46100 660-673], the normalised SPOT signal, Boehringer light units (BLU); mean over the file's lines of this peptide was 57.5.

KRKKPSRPAKTRKR [Q9UNZ9 85-98]: the normalised SPOT signal, Boehringer light units (BLU); mean over the file's lines of this peptide was 175.

In turn, KQVSPRRPQATEAV [Q9Y3H2 190-203] gave a normalised SPOT signal, Boehringer light units (BLU); mean over the file's lines of this peptide of 125.

With KRIKLRRPRVSKQR [Q96FU1 26-39], the normalised SPOT signal, Boehringer light units (BLU); mean over the file's lines of this peptide was found to be 20.7.

On to KRGRPGRPPSTNKK [O00539 35-49], for which the normalised SPOT signal, Boehringer light units (BLU); mean over the file's lines of this peptide was found to be 2490.

For the molecule APALPARPHRGLST [Q9UFL7 72-85], the normalised SPOT signal, Boehringer light units (BLU); mean over the file's lines of this peptide worked out at 37600.

As for KTEKPERPSRERDR [Q02241 662-675], the normalised SPOT signal, Boehringer light units (BLU); mean over the file's lines of this peptide turned out to be 403.

As for KRNSLKRPRDVDHR [Q9H8U9 166-179], the normalised SPOT signal, Boehringer light units (BLU); mean over the file's lines of this peptide turned out to be 0.

The molecule ANPPPKRPVRASSR [Q9HCK1 771-784] displayed a normalised SPOT signal, Boehringer light units (BLU); mean over the file's lines of this peptide of 8740.

Take KQYMLRRPALEDYV [Q9NWS7 207-220]: the normalised SPOT signal, Boehringer light units (BLU); mean over the file's lines of this peptide came out at 148.

Values taken from paper PMC314469, “Protein Interaction Networks by Proteome Peptide Scanning” (PLoS Biology, 2004).
